Measured values published in paper PMC9945446.

Target: DNMT1 (human) (UniProt P26358)
Test: EMSA
Conditions: 50 mM Tris-HCl pH 7.5, 100 mM KCl (or LiCl), 2.5 mM MgCl2, 0.1 mM ZnCl2, 2 mM BME, 0.05% NP40, 5% glycerol, 0.1 mg/mL BSA, 0.1 mg/mL yeast tRNA, 30 C 1 h

DNMT1 (human), sequence (P26358 whole entry): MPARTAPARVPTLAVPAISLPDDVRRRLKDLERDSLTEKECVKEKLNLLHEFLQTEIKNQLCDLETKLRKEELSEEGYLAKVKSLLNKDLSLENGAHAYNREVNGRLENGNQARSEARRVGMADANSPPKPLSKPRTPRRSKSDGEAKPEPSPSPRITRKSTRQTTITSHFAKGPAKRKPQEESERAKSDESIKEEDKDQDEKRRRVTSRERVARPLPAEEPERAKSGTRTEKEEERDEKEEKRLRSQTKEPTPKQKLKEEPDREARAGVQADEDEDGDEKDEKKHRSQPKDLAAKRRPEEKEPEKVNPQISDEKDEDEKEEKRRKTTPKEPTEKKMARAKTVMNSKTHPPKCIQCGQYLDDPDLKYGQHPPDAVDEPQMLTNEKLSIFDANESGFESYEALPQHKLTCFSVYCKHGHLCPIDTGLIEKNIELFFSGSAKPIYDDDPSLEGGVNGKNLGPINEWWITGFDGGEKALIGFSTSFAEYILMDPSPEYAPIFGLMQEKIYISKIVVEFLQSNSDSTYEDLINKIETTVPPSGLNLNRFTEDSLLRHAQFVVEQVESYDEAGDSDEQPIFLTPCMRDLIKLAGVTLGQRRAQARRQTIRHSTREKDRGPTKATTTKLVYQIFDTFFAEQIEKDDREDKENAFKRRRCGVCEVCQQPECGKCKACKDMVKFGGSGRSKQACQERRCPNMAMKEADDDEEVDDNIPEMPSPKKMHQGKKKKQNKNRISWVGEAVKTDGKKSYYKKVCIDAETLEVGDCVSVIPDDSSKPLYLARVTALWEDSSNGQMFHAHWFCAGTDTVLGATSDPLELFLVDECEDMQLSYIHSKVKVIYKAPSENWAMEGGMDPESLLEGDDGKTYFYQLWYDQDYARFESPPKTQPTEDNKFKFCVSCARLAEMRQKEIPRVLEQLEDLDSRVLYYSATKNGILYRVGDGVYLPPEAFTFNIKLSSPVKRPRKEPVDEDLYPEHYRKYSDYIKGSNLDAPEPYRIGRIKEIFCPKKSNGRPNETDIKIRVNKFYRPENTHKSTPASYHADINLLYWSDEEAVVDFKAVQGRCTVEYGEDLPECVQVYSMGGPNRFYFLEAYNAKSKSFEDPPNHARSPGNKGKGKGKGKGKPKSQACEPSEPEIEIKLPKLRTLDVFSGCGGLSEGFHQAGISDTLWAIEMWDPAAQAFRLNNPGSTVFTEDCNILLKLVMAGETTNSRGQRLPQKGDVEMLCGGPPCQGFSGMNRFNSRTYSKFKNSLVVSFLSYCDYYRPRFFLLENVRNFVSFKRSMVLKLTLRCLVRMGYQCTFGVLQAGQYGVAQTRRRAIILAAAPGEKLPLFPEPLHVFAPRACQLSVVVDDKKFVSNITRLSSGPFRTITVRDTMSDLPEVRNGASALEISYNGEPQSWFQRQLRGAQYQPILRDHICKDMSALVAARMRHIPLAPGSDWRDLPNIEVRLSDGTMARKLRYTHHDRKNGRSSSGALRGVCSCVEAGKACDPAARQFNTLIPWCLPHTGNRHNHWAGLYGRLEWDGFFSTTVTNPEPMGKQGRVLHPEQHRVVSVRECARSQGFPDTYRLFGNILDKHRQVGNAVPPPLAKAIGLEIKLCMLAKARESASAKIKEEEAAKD

| Sequence | binding signal (fold weaker than WT 3'UTR) | Kd [nM] |
| --- | --- | --- |
| UUCUGCCCUCCCGUCACCCCUGUUUCUGGCACCAGGAAUCCCCAACAUGCACUGACACCACACUUUUAACAUGUCAAUCUGUCCGUUCACACACACAACACACAACACCCACAGCCUUGGCUGACAUGAAGCCACCACACAAGGUUCGCUUAUCAACUAAUGAUUUAGUGAUCAAAUUGUGCAGUACUUUGUGCAUUCUGGAUUUUAAAAGUUUUUUAUUAUGCAUUAUAUCAAAUCUACCACUGUAUGAGUGGAAAUUAAGACUUUAUGUAGUUUUUAUAUGUUGUAAUAUUUCUUCAAAUAAAUCUCUCCUAUAAACCA | 3 | – |
| UUCCACCCUCCCACCACCCCUACUUCCAGCACCAGGAAUCCCCAACACACACCAACAUCACAUUUUUAACACAUCAAUCUACCCACUCACACACACAACACACAACACUUACGGCCUCAGCCAACACAAAGCCAUCACACAAGACUCGCUUAUCAACUAACAAUUUAACGAUCAAAUCACACAACACUUUACGCAUUCCAGAUUUUAAAAACUUUUUAUUACACAUUAUAUCAAAUCUACCACCAUACAAGCAGAAAUUAAGACUUUACAUAACUUUUAUACAUUACAAUAUUUCUUCAAAUAAAUCUCUCCUAUAAACCA [DNMT1 3'UTR GU mutant (all GU/UG to AC/CA)] | 2 | – |
| UUCUGCCCUCCCGUCACCCCUGUUUCUGGCACCAGGAAUCCCCAACAUGCACUGAUGUUGUGUUUUUAACAUGUCAAUCUGUCCGUUCACAUGUGUGGUACAUGGUGUUUGUGGCCUUGGCUGACAUGAAGCUGUUGUGUGAGGUUCGCUUAUCAACUAAUGAUUUAGUGAUCAAAUUGUGCAGUACUUUGUGCAUUCUGGAUUUUAAAAGUUUUUUAUUAUGCAUUAUAUCAAAUCUACCACUGUAUGAGUGGAAAUUAAGACUUUAUGUAGUUUUUAUAUGUUGUAAUAUUUCUUCAAAUAAAUCUCUCCUAUAAACCA [DNMT1 3'UTR WT] | – | 69 |
